According to patent US7067618B1, “Medicinal preparations” (Kyowa Hakko Kogyo Co., Ltd., priority 1998, dated 2006):

How the values were obtained:
[1] = Release of sialyllactose from insulin-sialyllactose reaction products caused by pH lowering (HPLC); assay type: physicochemical; details: for Proportion by HPLC, Release of Sialyllactose Caused by pH Lowering to 5.3: pH 5.3, 40° C.; for Proportion by HPLC, Release of Sialyllactose Caused by pH Lowering to 6.4: pH 6.4, 40° C.
Protocol: Bovine pancreatic insulin (0.2 mg, Wako Pure Chemical Industries, Ltd.) was dissolved in 1 mL of a 1 mmol/L aqueous solution of hydrochloric acid. To about 25 mg of sialyllactose of 75% purity (a mixture of 3′-sialyllactose and 6′-sialyllactose, Boehringer Mannheim GmbH) was added 0.1 mL of a 600 mmol/L aqueous solution of disodium hydrogenphosphate to make a solution. The insulin solution (0.1 mL) and the sialyllactose solution (0.1 mL) were mixed in a test tube to give a mixture having a pH of about 7.8. The test tube was put into a constant temperature water bath at 40° C. to cause reaction and left for 3 days. The reaction mixture was sampled intermittently, followed by centrifugation at 3000 rpm for 20 minutes to remove insoluble materials. The samples collected 0, 1 and 3 days after the start of the reaction were analyzed for products obtained by the reaction of insulin with sialyllactose by HPLC under the following conditions. • Column: YMC-Pack ODS-AP, 4.6×150 mm • Mobile phase: 20 mmol/L phosphate buffer (pH 8.0) containing 0.001% Triton X-100: acetonitrile containing 0.001% Triton X-100=411 parts by volume: 140 parts by volume • Flow rate: 1.3 mL/minute • Detection wavelength: 220 nm
(§1) Bovine pancreatic insulin (0.2 mg, Wako Pure Chemical Industries, Ltd.) was dissolved in 1 mL of a 1 mmol/L aqueous solution of hydrochloric acid. To about 25 mg of sialyllactose of 75% purity (a mixture of 3′-sialyllactose and 6′-sialyllactose, Boehringer Mannheim GmbH) was added 0.1 mL of a 600 mmol/L aqueous solution of disodium hydrogenphosphate to make a solution. The insulin solution (0.1 mL) and the sialyllactose solution (0.1 mL) were mixed in a test tube to give a solution having a pH of about 7.8. This solution was subjected to reaction at 40° C. for 3 days and then centrifuged at 3000 rpm for 20 minutes. To 40 μL of the supernatant was added 0.04 mL of a 50 mmol/L-aqueous solution of citric acid to adjust the pH to 6.4, and the resulting solution was subjected to reaction at 40° C. The reaction mixture was intermittently sampled and analyzed for products obtained by the reaction of insulin with sialyllactose by HPLC in a manner similar to that in Example 2.
as §1, with “centrifuged 1” for “centrifuged”, “100 mmol/L aqueous” for “50 mmol/L-aqueous”, “5.3,” for “6.4,”

[2] = Release of lactose from insulin-lactose reaction products caused by pH lowering (HPLC); assay type: physicochemical; details: for Proportion by HPLC, Release of Lactose Caused by pH Lowering to 5.0: pH 5.0, 40° C.; for Proportion by HPLC, Release of Lactose Caused by pH Lowering to 5.9: pH 5.9, 40° C.; for Proportion by HPLC, Release of Lactose Caused by pH Lowering to 6.7: pH 6.7, 40° C.
Protocol: A solution of 0.2 mg of bovine pancreatic insulin (Wako Pure Chemical Industries, Itd.) in 1 mL of a 2 mmol/L aqueous solution of hydrochloric acid, a solution of 320 mg of anhydrous β-lactose (Nacalai Tesque, Inc.) in 2 mL of distilled water, and 1 mL of a 200 mmol/L phosphate buffer (pH 8.4) were mixed in a test tube to give a mixture having a pH of about 8.1. The test tube was put into a constant temperature water bath at 40° C. to cause reaction. The reaction mixture was sampled after 0, 5 and 24 hours, and analyzed for products obtained by the reaction of insulin with lactose by high performance liquid chromatography (HPLC) under the following conditions. • Column: YMC-Pack ODS-A or YMC-Pack ODS-AM, 6.0×150 mm • Mobile phase: 100 mmol/L phosphate buffer (pH 8.0) containing 0.001% Triton X-100: acetonitrile containing 0.001% Triton X-100=25 parts by volume: 9 parts by volume • Flow rate: 1.3 mL/minute • Detection wavelength: 210 nm
(§2) A solution of 0.2 mg of bovine pancreatic insulin (Wako Pure Chemical Industries, Itd.) in 1 mL of a 2 mmol/L aqueous solution of hydrochloric acid, a solution of 320 mg of anhydrous β-lactose (Nacalai Tesque, Inc.) in 2 mL of distilled water, and 1 mL of a 200 mmol/L phosphate buffer (pH 8.4) were mixed in a test tube. The mixture was subjected to reaction at 40° C. for 24 hours. To 3 mL of the resulting solution was added 0.5 mL of a 50 mmol/L aqueous solution of citric acid to adjust the pH to 6.7, and the mixture was subjected to reaction at 40° C. The samples collected from the reaction mixture 0 and 30 minutes after the start of the reaction were analyzed for products obtained by the reaction of insulin with lactose by HPLC in a manner similar to that in Example 1.
as §2, with “100” for “50”, “5.9,” for “6.7,”, “The” for “The samples collected from the”, “was intermittently” for “0 and 30 minutes after the start of the reaction were”
as §2, with “a 150” for “a 50”, “to 5.0,” for “to 6.7,”, “The” for “The samples collected from the”, “mixture was intermittently sampled” for “mixture 0”, “and” for “and 30 minutes after the start of the reaction were”

## Insulin: bovine pancreatic insulin (Wako Pure Chemical Industries); free insulin to which no sugar is bound
[1]; 0 minute
  Proportion by HPLC, Release of Sialyllactose Caused by pH Lowering to 5.3: 31%
  Proportion by HPLC, Release of Sialyllactose Caused by pH Lowering to 6.4: 31%
[1]; 10 minutes
  Proportion by HPLC, Release of Sialyllactose Caused by pH Lowering to 5.3: 58%
  Proportion by HPLC, Release of Sialyllactose Caused by pH Lowering to 6.4: 44%
[1]; 30 minutes
  Proportion by HPLC, Release of Sialyllactose Caused by pH Lowering to 5.3: 80%
  Proportion by HPLC, Release of Sialyllactose Caused by pH Lowering to 6.4: 50%
[2]; 0 minute
  Proportion by HPLC, Release of Lactose Caused by pH Lowering to 5.0: 21%
  Proportion by HPLC, Release of Lactose Caused by pH Lowering to 5.9: 24%
  Proportion by HPLC, Release of Lactose Caused by pH Lowering to 6.7: 25%
[2]; 2 minutes
  Proportion by HPLC, Release of Lactose Caused by pH Lowering to 5.0: 60%
  Proportion by HPLC, Release of Lactose Caused by pH Lowering to 5.9: 35%
[2]; 10 minutes
  Proportion by HPLC, Release of Lactose Caused by pH Lowering to 5.0: 83%
  Proportion by HPLC, Release of Lactose Caused by pH Lowering to 5.9: 59%
[2]; 30 minutes
  Proportion by HPLC, Release of Lactose Caused by pH Lowering to 5.0: 93%
  Proportion by HPLC, Release of Lactose Caused by pH Lowering to 5.9: 76%
  Proportion by HPLC, Release of Lactose Caused by pH Lowering to 6.7: 45%
[2]; 60 minutes
  Proportion by HPLC, Release of Lactose Caused by pH Lowering to 5.0: 95%
  Proportion by HPLC, Release of Lactose Caused by pH Lowering to 5.9: 75%
